Numbering of substitutions follows the chain as printed. Values belong to the binder of their own block, whether it stands above or below them.
Legend:
Settings in all cases: both partners purified
[1] = target: T1, Nsa2 on the pre-60S particle (S. cerevisiae (endogenous in the yeast …, UniProt P40078 1-261)); assay: cryo-EM structure; purified Drg1 (1.75 mg/ml, 12 µM) mixed 1:1 with 200 nM export-competent Bud20-TAP pre-60S particles, 2 mM ATPγS, 10 minutes; particle-bound Drg1 and free Drg1 hexamers picked from the same dataset
T1 construct: Nsa2 of S. cerevisiae; only His20 to Lys74 seen as density; source: endogenous, on pre-60S particles purified via Bud20-TAP from S. cerevisiae
T1 sequence (looked up): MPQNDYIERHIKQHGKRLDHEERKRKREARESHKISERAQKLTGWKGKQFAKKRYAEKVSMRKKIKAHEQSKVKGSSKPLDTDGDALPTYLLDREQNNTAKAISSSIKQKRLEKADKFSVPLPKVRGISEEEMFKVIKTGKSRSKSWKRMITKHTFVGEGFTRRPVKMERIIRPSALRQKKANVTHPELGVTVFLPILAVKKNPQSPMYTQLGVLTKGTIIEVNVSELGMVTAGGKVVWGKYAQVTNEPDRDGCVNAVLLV

[2] = target: T2, Drg1 (diazaborine resistance gene 1), wild type, purified (S. cerevisiae, UniProt P32794 1-780); assay: pull-down; GST-tagged bait on GSH-agarose beads; 80 µg Drg1 in 120 µl binding buffer (20 mM HEPES-KOH, 150 mM potassium acetate, 5 mM magnesium acetate, 0.1% Tween-20, 1 mM DTT, pH 6.8); 1 mM ATP or ATPγS or no nucleotide; 60 minutes, room temperature
T2 construct: Drg1 (AFG2), hexameric type-II AAA-ATPase of S. cerevisiae, wild type; Hexamer in the cryo-EM maps; also called DRG1 (AFG2); AAA-ATPase Drg1; source: overexpressed in yeast as GST fusion (CuSO4-induced), purified on GSH-agarose, eluted by Prescission protease cleavage
T2 sequence: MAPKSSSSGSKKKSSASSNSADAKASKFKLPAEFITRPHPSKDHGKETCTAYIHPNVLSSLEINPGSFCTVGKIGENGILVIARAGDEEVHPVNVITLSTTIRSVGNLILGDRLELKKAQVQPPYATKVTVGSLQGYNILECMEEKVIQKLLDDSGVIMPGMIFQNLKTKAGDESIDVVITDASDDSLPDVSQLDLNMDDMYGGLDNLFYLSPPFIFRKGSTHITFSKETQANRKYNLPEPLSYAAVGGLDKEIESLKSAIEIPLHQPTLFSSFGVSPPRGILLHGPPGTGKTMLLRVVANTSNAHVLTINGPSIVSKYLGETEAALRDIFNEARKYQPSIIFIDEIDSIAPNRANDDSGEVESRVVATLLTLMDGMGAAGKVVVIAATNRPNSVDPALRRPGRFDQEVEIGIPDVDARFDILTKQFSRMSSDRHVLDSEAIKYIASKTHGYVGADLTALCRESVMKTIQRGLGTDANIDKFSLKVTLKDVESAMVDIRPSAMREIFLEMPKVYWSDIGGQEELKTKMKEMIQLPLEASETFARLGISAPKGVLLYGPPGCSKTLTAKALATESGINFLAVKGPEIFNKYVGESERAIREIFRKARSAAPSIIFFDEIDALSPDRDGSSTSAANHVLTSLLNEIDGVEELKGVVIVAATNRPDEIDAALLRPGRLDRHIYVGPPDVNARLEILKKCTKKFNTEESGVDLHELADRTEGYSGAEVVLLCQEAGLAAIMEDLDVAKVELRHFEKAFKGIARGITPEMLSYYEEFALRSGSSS

[3] = target: T3, Drg1EQ1 (E346Q), D1 Walker B variant, purified (S. cerevisiae, UniProt P32794 1-780, E346Q); assay: as above
T3 construct: Drg1 (AFG2) of S. cerevisiae with the D1 Walker B exchange E346Q; source: overexpressed in yeast as GST fusion, purified on GSH-agarose, eluted by Prescission protease cleavage
T3 sequence: T2 sequence with E346Q

- binding result [1]: binds
B1: Mrt4 on the pre-60S particle (natural protein, UniProt P33201 1-236, looked up)
chain: MPRSKRSKLVTLAQTDKKGRENKERIFDEVREALDTYRYVWVLHLDDVRTPVLQEIRTSWAGSKLIMGKRKVLQKALGEKREEEYKENLYQLSKLCSGVTGLLFTDEDVNTVKEYFKSYVRSDYSRPNTKAPLTFTIPEGIVYSRGGQIPAEEDVPMIHSLEPTMRNKFEIPTKIKAGKITIDSPYLVCTEGEKLDVRQALILKQFGIAASEFKVKVSAYYDNDSSTVESTNINME
notes: Mrt4 of S. cerevisiae; source: endogenous, on pre-60S particles purified via Bud20-TAP from S. cerevisiae

- binding result [2]: binds
- binding result [3]: binds
B2: GST-Arx1 (natural protein, S. cerevisiae)
chain: MALAISHEDTQILLKDKNILQESVLNKYRTAGQIAQTALKYVTSLINDSYHSKTTQRQLTVPELCLLTDSFILTRLEQYYKNKVNERGIAIPTTIDIDQISGGWCPEIDDTQNLLNWNKGKDSTFASSVTGTLRPGDLVKITLGVHIDGYTSEVSHTMVIYPVDETKPILQPTGPLLGGKADAVAAAHIAMETVVALLACALTPEKLPASLGGTSSGITGQLIRTIVDTIARSYNCGVVPGSRVRRIRRFLAGQNEGIVAEREYKGVVWTESHQEADLLSNTDAKDLTVVDRGQSTPFTNVSAIPSDDFVVQSGEVYLIDLKMASLEHCTKKGLVTLETVDSYTGKSHKAGELIARPGAYVRDFAQTHILKLKTSRQLLTKIDKQGVYPFKLSHLSSNFPFVHENEEELQSLKKDLKSFRLGMSEISNNYLCVESPIQIARWVPWDHILKATNPNGNLSYDATSTLTLPGHELPLPKLGVSAIKLKSLMNSTKESISLPVARECNTIVLCDSSVSTTDRPELLRLTGGSKTCQPSWIHSQHELNPQDSIVQGIFQLATLAKDKRFGLLLKETQPMKQKSVETSNGGVEETMKM
notes: Arx1 of S. cerevisiae; not shown: GST, N-terminal, kept

From article PMC9507969, “Visualizing maturation factor extraction from the nascent ribosome by the AAA-ATPase Drg1” (Nature Structural & Molecular Biology, 2022)
